Results on eleven compounds are retold here after US5739106A, “Appetite regulating compositions” (priority 1995, dated 1998).

Ends that are not written are not given here.

In data set [1] the target is amylin receptors (membrane-bound amylin receptors).
For data set [2] the target is unchanged. Briefly: receptor binding assay: competition with 125I Bolton Hunter rat amylin for membrane-bound amylin receptors.
The test system of another data set is food intake in mice. Description: food intake in food-deprived mice after intraperitoneal injection. The class given is in vivo. The protocol: Male NIH/Swiss Webster (Hsd:NIHS) mice, 8-10 weeks of age, were obtained from Harlan Sprague Dawley, Madison, Wis. Animals were exposed to 12:12 hour light-dark cycle, with lights off at 18:00, and with room temperature between 22° and 25° C. Water and food (Teklan 7002, Harlan Teklad, Madison, Wis.) were available ad libitum except as indicated below. Animals were adapted to the vivarium environment for at least one week before experiments were carried out.
Rat amylin (AC128) was synthesized by Fmoc solid phase synthesis. […] Peptides were dissolved in sterile water to obtain stock solutions of 1 mg/ml. Further dilutions were made with sterile saline just prior to intraperitoneal injections.
Animals were individually housed and deprived of food for 18-20 hours before experiments. Animals were allowed ad libitum access to water before and during the experiments. Immediately after intraperitoneal injection of rat amylin or CCK-8 or saline, all animals received a pre-weighed pellet of food. Food intake for each animal was measured by weighing the food pellet at 30 minutes following injection and providing food.

Data set [3] is described as follows: solubility and stability characteristics compared to human amylin. The class given is physicochemical.
The subject of data set [4] is insulin-stimulated glycogen synthesis in soleus muscle. Conditions: cited from earlier work.
In a further data set the test system is food intake in rats. Conditions: IP, 0.5 μg/kg; cited from earlier work.

In data set [1], “1.7-Asn-eel Calcitonin (from UniProt P01262) (peptide)” displayed a Soleus Muscle (EC50, nM) of 0.3 nM. Moreover, the concentration for half-maximal inhibition (IC50) in data set [2] is 50 pM.
In the case of `CSCC[C@H](NC(=O)[C@H](Cc1ccc(OS(=O)(=O)O)cc1)NC(=O)[C@@H](N)CC(=O)O)C(=O)NCC(=O)N[C@@H](Cc1c[nH]c2ccccc12)C(=O)N[C@@H](CCSC)C(=O)N[C@@H](CC(=O)O)C(=O)N[C@@H](Cc1ccccc1)C(N)=O` [CCK-8, Asp-Tyr(SO3 H)-Met-Gly-Trp-Met-Asp-Phe-NH2], the “effect on food intake” value in the data set on food intake in mice (IP injection of 1.0 μg/kg, peptide alone) was “no measurable effect”. Also, in the data set with food intake in mice (mice, intraperitoneal, 1.0 μg/kg of each peptide, at 30 minutes), the suppressed food intake was determined as 10.6±16.9%.
Regarding `CC[C@H](C)[C@H](NC(=O)[C@@H]1CCCN1C(=O)CNC(=O)[C@H](Cc1ccccc1)NC(=O)[C@H](CC(N)=O)NC(=O)[C@H](CC(N)=O)NC(=O)[C@H](CO)NC(=O)[C@H](CO)NC(=O)[C@H](Cc1c[nH]cn1)NC(=O)[C@@H](NC(=O)[C@H](CC(C)C)NC(=O)[C@H](Cc1ccccc1)NC(=O)[C@H](CC(N)=O)NC(=O)[C@H](C)NC(=O)[C@H](CC(C)C)NC(=O)[C@H](CCCNC(=N)N)NC(=O)[C@H](CCC(N)=O)NC(=O)[C@@H](NC(=O)[C@H](C)NC(=O)[C@@H]1CSSC[C@H](NC(=O)[C@@H](N)CCCCN)C(=O)N[C@@H](CC(N)=O)C(=O)N[C@@H]([C@@H](C)O)C(=O)N[C@@H](C)C(=O)N[C@@H]([C@@H](C)O)C(=O)N1)[C@@H](C)O)C(C)C)C(=O)N[C@@H](CC(C)C)C(=O)N1CCC[C@H]1C(=O)N1CCC[C@H]1C(=O)N[C@H](C(=O)N[C@@H](CC(N)=O)C(=O)N[C@H](C(=O)NCC(=O)N[C@@H](CO)C(=O)N[C@@H](CC(N)=O)C(=O)N[C@H](C(=O)N[C@@H](Cc1ccc(O)cc1)C(N)=O)[C@@H](C)O)C(C)C)[C@@H](C)O` [^25,28,29 Pro-h-amylin], in data set [3], the solubility characteristics result is given as “more desirable” and the stability characteristics result is on record as “more desirable”.
Turning to “Chicken calcitonin (from UniProt P07660) (ligand)”, the Soleus Muscle (EC50, nM) in data set [1] was found to be 0.7 nM. Further, in data set [2], the half-inhibitory concentration (IC50) was found to be 30 pM.
Regarding “Chicken calcitonin: ultimobranchial calcitonin closely related to fish calcitonins (CASLSTCVLGKLSQELHKLQTYPRTDVGAGTP; ends and bridges not checked; cysteine pairing not given here)”, the EC50 in data set [4] was 700 pM.
In the case of “Eel calcitonin (from UniProt P01262) (ligand)”, the Soleus Muscle (EC50, nM) in data set [1] came out at 0.4 nM. This compound also returned an IC50 in data set [2] of 90 pM.
Take “Eel calcitonin: calcitonin from fish (eel), ultimobranchial calcitonin (CSNLSTCVLGKLSQELHKLQTYPRTDVGAGTP; ends and bridges not checked; cysteine pairing not given here)”: the concentration giving a half-maximal response (EC50) in data set [4] was 400 pM.
“Human amylin (from UniProt P10997) (ligand)”: in data set [1], the Soleus Muscle (EC50, nM) is 1.6 nM. In data set [2], this compound showed an IC50 of 50 pM.
Take “Salmon calcitonin (from UniProt P01263) (ligand)”: the Soleus Muscle (EC50, nM) in data set [1] turned out to be 0.4 nM. The same compound came in with an IC50 in data set [2] of 70 pM.
On to “Salmon calcitonin: calcitonin from fish (salmon), ultimobranchial calcitonin, amylin agonist”, for which, in data set [4], the concentration giving a half-maximal response (EC50) is 400 pM.
As for “amylin: amylin of unstated species in a literature report (KCNTATCATQRLANFLVHSSNNFGAILSSTNVGSNTY; Islet amyloid polypeptide; UniProt P10997 34-70, looked up)”, the “effect on food intake” value in the data set with food intake in rats was “significantly decreased food intake”.

For orientation: IC50 means the point on the concentration scale where inhibition reaches its midpoint. Higher therefore signals lower potency. For orientation: EC50 means the concentration at which the effect is half-maximal.
